Consider 3 molecules from patent publication US20100034831A1 (DOMANTIS, published 2010).

The chains are these.
T1: mouse TNFR1 on L929 fibroblasts (mouse, UniProt P25118 30-454)
T1 sequence (looked up): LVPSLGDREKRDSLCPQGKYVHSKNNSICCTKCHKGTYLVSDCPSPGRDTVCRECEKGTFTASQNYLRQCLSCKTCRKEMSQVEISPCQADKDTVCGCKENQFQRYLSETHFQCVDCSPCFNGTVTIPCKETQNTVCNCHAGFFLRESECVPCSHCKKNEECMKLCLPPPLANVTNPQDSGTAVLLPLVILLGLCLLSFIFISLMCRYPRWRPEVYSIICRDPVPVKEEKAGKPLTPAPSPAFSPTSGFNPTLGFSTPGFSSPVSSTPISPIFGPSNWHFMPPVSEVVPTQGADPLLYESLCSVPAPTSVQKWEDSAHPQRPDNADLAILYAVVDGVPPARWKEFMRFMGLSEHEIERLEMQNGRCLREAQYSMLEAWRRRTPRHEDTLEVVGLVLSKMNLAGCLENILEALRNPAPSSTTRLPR

B1: TAR2m-15-12 (anti-TNFR1 dAb) (other)
chain: DIQMTQSPSSLSASVGDRVTITCRASQYIHTSVQWYQQKPGKAPKLLIYGSSRLHSGVPSRFSGSGSGTDFTLTISSLQPEDFATYYCQQNHYSPFTYGQGTKVEIKR
B2: TAR2m-21-23 (anti-TNFR1 dAb monomer) (other)
VH: EVQLLESGGGLVQPGGSLRLSCAASGFTFNRYSMGWLRQAPGKGLEWVSRIDSYGRGTYYEDPVKGRFSISRDNSKNTLYLQMNSLRAEDTAVYYCAKISQFGSNAFDYWGQGTQVTVSS
B3: PEG DOM1M (anti-TNFR1 dAb monomer TAR2m21-23 PEGylated with a 40 kDa polyethyleneglycol) (other)
VH: EVQLLESGGGLVQPGGSLRLSCAASGFTFNRYSMGWLRQAPGKGLEWVSRIDSYGRGTYYEDPVKGRFSISRDNSKNTLYLQMNSLRAEDTAVYYCAKISQFGSNAFDYWGQGTQVTVSS
modifications: PEGylated with a 40 kDa polyethyleneglycol (attachment site not stated)

For the assay, the target named is T1, mouse TNFR1 on L929 fibroblasts. Put plainly: cell-based or functional assay.
With B1, the “Potency, ND50 L929 assay” value was 5 nM.

As to B2, the “Potency, ND50 L929 assay” value turned out to be 1 nM.

B3: the “Potency, ND50 L929 assay” value came to 1 nM.
